Patent publication US20160361384A1, “COSMETIC USE OF DERMICIDIN, OR ANALOGUES OR FRAGMENTS THEREOF, FOR THE PREVENTION AND/OR TREATMENT AND DIAGNOSIS OF OILY SKIN AND AESTHETIC SKIN DISORDERS ASSOCIATED THEREWITH” (L'OREAL, priority 2013, published 2016)
Ends that are not written are not given here.

B1: Recombinant human S100A7: recombinant human S100A7, Interchim (Protera), folding verified by NMR, batch EN00510-23/24/25 (protein, UniProt P31151 2-101, looked up)
Protein S100-A7: SNTQAERSIIGMIDMFHKYTRRDDKIEKPSLLTMMKENFPNFLSACDKKGTNYLADVFEKKDKNEDKKIDFSEFLSLLGDIATDYHKQSHGAAPCSGGSQ
B2: RNASE 7: antimicrobial peptide RNASE 7, Human Plv extraction (heel horn) (protein, UniProt Q9H1E1 29-156, looked up)
Ribonuclease 7: KPKGMTSSQWFKIQHMQPSPQACNSAMKNINKHTKRCKDLNTFLHEPFSSVAATCQTPKIACKNGDKNCHQSHGAVSLTMCKLTSGKHPNCRYKEKRQNKSYVVACKPPQKKDSQQFHLVPVHLDRVL
B3: Lacritin: antimicrobial peptide Lacritin, synthesized by hybrogenics Ref: Hgx 2238v1 (peptide, UniProt Q9GZZ8 20-138, looked up)
Extracellular glycoprotein …: EDASSDSTGADPAQEAGTSKPNEEISGPAEPASPPETTTTAQETSAAAVQGTAKVTSSRQELNPLKSIVEKSILLTEQALAKAGKGMHGGVPGGKQFIENGSEFAQKLLKKFSLLKPWA

Tested on: P. acnes ATCC 6919
Type: cell-based, Propionibacterium acnes
Settings: for MIC in μg/ml P. acnes: P. acnes ATCC 6919, 48 h incubation, optical density at 620 nm, concentration range 5 to 100 μg/ml, triplicate
Experimental: A micromethod was developed in a microplate.
The test principle is based on bringing decreasing concentrations of antimicrobial peptide (DCD-1L) into contact with an identical inoculum of P. acnes in a culture medium conducive to the growth of P. acnes. After incubation of the microplate for 48 h with the P. acnes strain, the optical density of the sample (620 nm) is measured and the results are expressed as percentage growth calculated relative to a growth control without antimicrobial peptide (negative control).
In addition, the inoculum is also brought into contact with triclosan in order to have a positive control.
The minimum inhibitory concentration or MIC is the lowest concentration of antibiotic that is sufficient to inhibit, in the laboratory, i.e. in vitro, the growth of a bacterial strain (bacterial colony).
The concentration range chosen ranged from 5 to 100 μg/ml.
Each concentration was tested in triplicate.
The inhibitory activity of the peptides was evaluated on the following microorganism: • P. acnes ATCC 6919 (Gram+bacterium)

Molecule	MIC in μg/ml P. acnes	growth of P. acnes (in the presence of a low concentration of the peptide)
SSLLEKGLDGAKKAVGGLGKLGKDAVEDLESVGKGAVHDVKDVLDSVL [Dermcidin (DCD1L)]	<5 µg/mL	greatly inhibited
B1	>100 µg/mL	
B2	>100 µg/mL	
B3	100 µg/mL	
